Test [1] addresses FcRs expressed by THP-1 cells. As to the kind of experiment: flow cytometry on THP-1 cells (self-expressing FcRs), anti-human IgG-Fc PE. Background: A flow cytometer gives signals particle by particle.
In test [2] the target is human FcγRIIb (human) (UniProt P31994). Nature of the test: flow cytometry on CHOS-hCD32b cells (overexpressing human FcγRIIb), anti-human IgG-Fc PE.

This passage reports EC50 results from patent EP4592315A1.

human FcγRIIb (human), sequence (P31994 43-310): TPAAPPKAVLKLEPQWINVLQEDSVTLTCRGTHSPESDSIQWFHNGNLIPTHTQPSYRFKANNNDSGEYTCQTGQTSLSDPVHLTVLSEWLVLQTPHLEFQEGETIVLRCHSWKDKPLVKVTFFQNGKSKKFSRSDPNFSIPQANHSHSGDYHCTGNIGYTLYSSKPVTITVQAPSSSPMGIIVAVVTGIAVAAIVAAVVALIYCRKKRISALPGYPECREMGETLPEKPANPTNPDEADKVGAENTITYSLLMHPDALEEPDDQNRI

The term EC50 denotes the concentration that produces a half-maximal response. The low end stands for greater potency, the high end for weaker potency. Urelumab (antibody) yielded an EC50 in test [1] of 462 pM. Regarding Trastuzumab (antibody), in test [1], the EC50 amounted to 731 pM. As for Pertuzumab (antibody), the figures for the concentration giving a half-maximal response (EC50) in test [1] and in test [2] were 716 pM and 1360 pM, respectively.
